# Assay results as given in paper PMC6465399, “S-nitrosylation of the Peroxiredoxin-2 promotes S-nitrosoglutathione-mediated lung cancer cells apoptosis via AMPK-SIRT1 pathway” (Cell Death & Disease, 2019).
# B1: Peroxiredoxin-2 (enzyme, human (endogenous in A549), UniProt P32119 1-198, looked up)
# chain: MASGNARIGKPAPDFKATAVVDGAFKEVKLSDYKGKYVVLFFYPLDFTFVCPTEIIAFSNRAEDFRKLGCEVLGVSVDSQFTHLAWINTPRKEGGLGPLNIPLLADVTRRLSEDYGVLKTDEGIAYRGLFIIDGKGVLRQITVNDLPVGRSVDEALRLVQAFQYTDEHGEVCPAGWKPGSDTIKPNVDDSKEYFSKHN
# notes: Peroxiredoxin-2 (Prdx2), endogenous in human A549 lung cancer cells; three cysteines Cys51, Cys70, Cys172; The dimer seen on the non-reducing gel is the disulfide-linked (Cys51-Cys172) form; also called Prdx2; source: endogenous, A549 cells, in lysate
# Target: the molecule itself
# Assay: non-reducing SDS-PAGE and immunoblot (dimer/monomer detection); A549 cells untreated or treated with GSNO for 24 h; 100 mM N-ethyl maleimide for 20 min at 37 °C to preserve the Prdx2 redox state; nonreducing lysis buffer (100 mM Tris-HCl pH 6.8, 10% glycerol, 2% SDS) with 100 mM NEM; immunoblot for Prdx2
protein,measurement,value
B1,stoichiometry N,2
